{
  "source": "the supplement of paper PMC7125110",
  "parents": {"B1": {"name": "glmS ribozyme (parent)", "chain": "AUAAAAGCGCCAGAACUACAGAAAUGUAGUUGACGAGGAGGAGGUUUAUCGAAUUUUCGGCGGAUGCCUCCAAA"}},
  "key": {"glucosamine-6-phosphate [1]": {"variants_of": "B1", "assay": "self-cleavage kobs at 640 uM GlcN6P; higher = faster cleavage; RNA array", "conditions": "with glucosamine-6-phosphate", "outline": "(§1)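 kcat and KM were obtained from weighted Michaelis–Menten fits across concentrations of kobs values. Those came from one- or two-exponential decay fits to per-tile medians normalised to baseline and to non-cleaving reference variants. The variants were barcoded ribozymes transcribed in situ by E. coli RNA polymerase on sequenced MiSeq chips and tracked through a hybridised Cy3 probe at 37 °C, with 40 μM to 10 mM glucosamine-6-phosphate in HEPES/KCl/Mg(OAc)2 buffer flowed in.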"}, "glucosamine-6-phosphate [2]": {"variants_of": "B1", "assay": "self-cleavage kobs at 2500 uM GlcN6P; higher = faster cleavage; RNA array", "conditions": "with glucosamine-6-phosphate", "outline": "as §1"}},
  "note": "± gives the standard error. Fewer inactive variants are shown than the library holds.",
  "data": [
    {"variant": "A52G C58A G63C C68G", "values": [
      {"measurement": "self-cleavage kobs at 640 uM GlcN6P", "setting": "glucosamine-6-phosphate [1]", "result": "0.00011 ± 4.4e-05", "unit": "s⁻¹"},
      {"measurement": "self-cleavage kobs at 2500 uM GlcN6P", "setting": "glucosamine-6-phosphate [2]", "result": "0.000102 ± 2.9e-05", "unit": "s⁻¹"}
    ]},
    {"variant": "C11G A42U G63U", "values": [
      {"measurement": "self-cleavage kobs at 640 uM GlcN6P", "setting": "glucosamine-6-phosphate [1]", "result": "< 1e-05", "unit": "s⁻¹"}
    ]},
    {"variant": "C8U C10G C67G", "values": [
      {"measurement": "self-cleavage kobs at 640 uM GlcN6P", "setting": "glucosamine-6-phosphate [1]", "result": "0.000675 ± 0.00032", "unit": "s⁻¹"}
    ]},
    {"variant": "G44U U46A A53U C70G", "values": [
      {"measurement": "self-cleavage kobs at 640 uM GlcN6P", "setting": "glucosamine-6-phosphate [1]", "result": "< 1e-05", "unit": "s⁻¹"}
    ]},
    {"variant": "A15C G32A G38U", "values": [
      {"measurement": "self-cleavage kobs at 640 uM GlcN6P", "setting": "glucosamine-6-phosphate [1]", "result": "< 1e-05", "unit": "s⁻¹"}
    ]},
    {"variant": "C50G U57A A64U", "values": [
      {"measurement": "self-cleavage kobs at 640 uM GlcN6P", "setting": "glucosamine-6-phosphate [1]", "result": "0.000127 ± 5.8e-05", "unit": "s⁻¹"}
    ]},
    {"variant": "U31G G37U U69G", "values": [
      {"measurement": "self-cleavage kobs at 640 uM GlcN6P", "setting": "glucosamine-6-phosphate [1]", "result": "6.98e-05 ± 2.8e-05", "unit": "s⁻¹"},
      {"measurement": "self-cleavage kobs at 2500 uM GlcN6P", "setting": "glucosamine-6-phosphate [2]", "result": "9.82e-05 ± 3e-05", "unit": "s⁻¹"}
    ]},
    {"variant": "C16G A33U G37U C68G C71U", "values": [
      {"measurement": "self-cleavage kobs at 640 uM GlcN6P", "setting": "glucosamine-6-phosphate [1]", "result": "8.54e-05 ± 3.1e-05", "unit": "s⁻¹"}
    ]},
    {"variant": "G7U A15C A39C", "values": [
      {"measurement": "self-cleavage kobs at 640 uM GlcN6P", "setting": "glucosamine-6-phosphate [1]", "result": "< 1e-05", "unit": "s⁻¹"}
    ]},
    {"variant": "A15U G35U G59A", "values": [
      {"measurement": "self-cleavage kobs at 640 uM GlcN6P", "setting": "glucosamine-6-phosphate [1]", "result": "< 1e-05", "unit": "s⁻¹"}
    ]},
    {"variant": "A12C U54G C68G", "values": [
      {"measurement": "self-cleavage kobs at 640 uM GlcN6P", "setting": "glucosamine-6-phosphate [1]", "result": "4.37e-05 ± 1.2e-05", "unit": "s⁻¹"},
      {"measurement": "self-cleavage kobs at 2500 uM GlcN6P", "setting": "glucosamine-6-phosphate [2]", "result": "5.51e-05 ± 1.5e-05", "unit": "s⁻¹"}
    ]},
    {"variant": "C58G C68A", "values": [
      {"measurement": "self-cleavage kobs at 640 uM GlcN6P", "setting": "glucosamine-6-phosphate [1]", "result": "0.000125 ± 3e-05", "unit": "s⁻¹"}
    ]},
    {"variant": "G13A C68G C71G", "values": [
      {"measurement": "self-cleavage kobs at 640 uM GlcN6P", "setting": "glucosamine-6-phosphate [1]", "result": "0.000118 ± 5e-05", "unit": "s⁻¹"},
      {"measurement": "self-cleavage kobs at 2500 uM GlcN6P", "setting": "glucosamine-6-phosphate [2]", "result": "0.000141 ± 3.4e-05", "unit": "s⁻¹"}
    ]},
    {"variant": "A6G C16A A52C", "values": [
      {"measurement": "self-cleavage kobs at 640 uM GlcN6P", "setting": "glucosamine-6-phosphate [1]", "result": "< 1e-05", "unit": "s⁻¹"},
      {"measurement": "self-cleavage kobs at 2500 uM GlcN6P", "setting": "glucosamine-6-phosphate [2]", "result": "< 1e-05", "unit": "s⁻¹"}
    ]},
    {"variant": "C10U A14U C16G U45G", "values": [
      {"measurement": "self-cleavage kobs at 640 uM GlcN6P", "setting": "glucosamine-6-phosphate [1]", "result": "< 1e-05", "unit": "s⁻¹"}
    ]},
    {"variant": "A12G G13U G62A", "values": [
      {"measurement": "self-cleavage kobs at 640 uM GlcN6P", "setting": "glucosamine-6-phosphate [1]", "result": "< 1e-05", "unit": "s⁻¹"}
    ]},
    {"variant": "G9C G37C C70G", "values": [
      {"measurement": "self-cleavage kobs at 640 uM GlcN6P", "setting": "glucosamine-6-phosphate [1]", "result": "< 1e-05", "unit": "s⁻¹"},
      {"measurement": "self-cleavage kobs at 2500 uM GlcN6P", "setting": "glucosamine-6-phosphate [2]", "result": "< 1e-05", "unit": "s⁻¹"}
    ]},
    {"variant": "G7U C61U C68G", "values": [
      {"measurement": "self-cleavage kobs at 640 uM GlcN6P", "setting": "glucosamine-6-phosphate [1]", "result": "0.00114 ± 0.00049", "unit": "s⁻¹"}
    ]},
    {"variant": "C11G G13C A15G G43U G63C", "values": [
      {"measurement": "self-cleavage kobs at 640 uM GlcN6P", "setting": "glucosamine-6-phosphate [1]", "result": "< 1e-05", "unit": "s⁻¹"},
      {"measurement": "self-cleavage kobs at 2500 uM GlcN6P", "setting": "glucosamine-6-phosphate [2]", "result": "< 1e-05", "unit": "s⁻¹"}
    ]},
    {"variant": "A39U A53C U55C", "values": [
      {"measurement": "self-cleavage kobs at 640 uM GlcN6P", "setting": "glucosamine-6-phosphate [1]", "result": "0.000547 ± 9.5e-05", "unit": "s⁻¹"},
      {"measurement": "self-cleavage kobs at 2500 uM GlcN6P", "setting": "glucosamine-6-phosphate [2]", "result": "0.00232 ± 0.00029", "unit": "s⁻¹"}
    ]},
    {"variant": "C11G A12U G38C A42U", "values": [
      {"measurement": "self-cleavage kobs at 640 uM GlcN6P", "setting": "glucosamine-6-phosphate [1]", "result": "< 1e-05", "unit": "s⁻¹"},
      {"measurement": "self-cleavage kobs at 2500 uM GlcN6P", "setting": "glucosamine-6-phosphate [2]", "result": "< 1e-05", "unit": "s⁻¹"}
    ]},
    {"variant": "G7C A14C A52U", "values": [
      {"measurement": "self-cleavage kobs at 640 uM GlcN6P", "setting": "glucosamine-6-phosphate [1]", "result": "< 1e-05", "unit": "s⁻¹"},
      {"measurement": "self-cleavage kobs at 2500 uM GlcN6P", "setting": "glucosamine-6-phosphate [2]", "result": "< 1e-05", "unit": "s⁻¹"}
    ]},
    {"variant": "C10G C11A C58G G63U C68A", "values": [
      {"measurement": "self-cleavage kobs at 640 uM GlcN6P", "setting": "glucosamine-6-phosphate [1]", "result": "0.000138 ± 3.5e-05", "unit": "s⁻¹"},
      {"measurement": "self-cleavage kobs at 2500 uM GlcN6P", "setting": "glucosamine-6-phosphate [2]", "result": "0.000117 ± 3.3e-05", "unit": "s⁻¹"}
    ]},
    {"variant": "G9U G60A G66U", "values": [
      {"measurement": "self-cleavage kobs at 640 uM GlcN6P", "setting": "glucosamine-6-phosphate [1]", "result": "< 1e-05", "unit": "s⁻¹"}
    ]},
    {"variant": "G13U A39U A48U G51A U55G C70A", "values": [
      {"measurement": "self-cleavage kobs at 640 uM GlcN6P", "setting": "glucosamine-6-phosphate [1]", "result": "< 1e-05", "unit": "s⁻¹"}
    ]},
    {"variant": "A33U U54A G60C", "values": [
      {"measurement": "self-cleavage kobs at 640 uM GlcN6P", "setting": "glucosamine-6-phosphate [1]", "result": "< 1e-05", "unit": "s⁻¹"},
      {"measurement": "self-cleavage kobs at 2500 uM GlcN6P", "setting": "glucosamine-6-phosphate [2]", "result": "< 1e-05", "unit": "s⁻¹"}
    ]},
    {"variant": "A36C G63A G66A", "values": [
      {"measurement": "self-cleavage kobs at 640 uM GlcN6P", "setting": "glucosamine-6-phosphate [1]", "result": "< 1e-05", "unit": "s⁻¹"}
    ]},
    {"variant": "A12U G32C G35C A42U", "values": [
      {"measurement": "self-cleavage kobs at 640 uM GlcN6P", "setting": "glucosamine-6-phosphate [1]", "result": "< 1e-05", "unit": "s⁻¹"}
    ]},
    {"variant": "G35A U54C A64C", "values": [
      {"measurement": "self-cleavage kobs at 640 uM GlcN6P", "setting": "glucosamine-6-phosphate [1]", "result": "< 1e-05", "unit": "s⁻¹"}
    ]},
    {"variant": "C58G A64G U65A G66U C67G U69C", "values": [
      {"measurement": "self-cleavage kobs at 640 uM GlcN6P", "setting": "glucosamine-6-phosphate [1]", "result": "9.79e-05 ± 2.9e-05", "unit": "s⁻¹"}
    ]},
    {"variant": "G7A G37C A39U U47G", "values": [
      {"measurement": "self-cleavage kobs at 640 uM GlcN6P", "setting": "glucosamine-6-phosphate [1]", "result": "< 1e-05", "unit": "s⁻¹"}
    ]},
    {"variant": "G13U G63A C71U", "values": [
      {"measurement": "self-cleavage kobs at 640 uM GlcN6P", "setting": "glucosamine-6-phosphate [1]", "result": "< 1e-05", "unit": "s⁻¹"},
      {"measurement": "self-cleavage kobs at 2500 uM GlcN6P", "setting": "glucosamine-6-phosphate [2]", "result": "< 1e-05", "unit": "s⁻¹"}
    ]},
    {"variant": "C11A U30C A53C C71U", "values": [
      {"measurement": "self-cleavage kobs at 640 uM GlcN6P", "setting": "glucosamine-6-phosphate [1]", "result": "< 1e-05", "unit": "s⁻¹"}
    ]},
    {"variant": "G32C G37U G51C", "values": [
      {"measurement": "self-cleavage kobs at 640 uM GlcN6P", "setting": "glucosamine-6-phosphate [1]", "result": "< 1e-05", "unit": "s⁻¹"}
    ]},
    {"variant": "C10G G13U G41U U49G", "values": [
      {"measurement": "self-cleavage kobs at 640 uM GlcN6P", "setting": "glucosamine-6-phosphate [1]", "result": "< 1e-05", "unit": "s⁻¹"}
    ]},
    {"variant": "C10U G29A C61A G62A C70U", "values": [
      {"measurement": "self-cleavage kobs at 640 uM GlcN6P", "setting": "glucosamine-6-phosphate [1]", "result": "7.67e-05 ± 3.8e-05", "unit": "s⁻¹"}
    ]},
    {"variant": "A12C G29A G43U C71G", "values": [
      {"measurement": "self-cleavage kobs at 640 uM GlcN6P", "setting": "glucosamine-6-phosphate [1]", "result": "< 1e-05", "unit": "s⁻¹"},
      {"measurement": "self-cleavage kobs at 2500 uM GlcN6P", "setting": "glucosamine-6-phosphate [2]", "result": "< 1e-05", "unit": "s⁻¹"}
    ]},
    {"variant": "G62C A64U G66U", "values": [
      {"measurement": "self-cleavage kobs at 640 uM GlcN6P", "setting": "glucosamine-6-phosphate [1]", "result": "< 1e-05", "unit": "s⁻¹"},
      {"measurement": "self-cleavage kobs at 2500 uM GlcN6P", "setting": "glucosamine-6-phosphate [2]", "result": "< 1e-05", "unit": "s⁻¹"}
    ]}
  ]
}
